The target of assay [1] is T1, recombinant soluble human HLA-G β2M MHC class I complex, monomer (human).
T1 construct: His tagged; also called HLA-G-0003
Put plainly: ELISA, biotinylated wt HLA-G monomer on streptavidin plate. The procedure:
Streptavidin coated plates (Nunc, MicroCoat #11974998001) were coated with 25 μl/well biotinylated human wt HLA-G at a concentration of 250 ng/ml and incubated at 4° C. overnight. After washing (3×90 μl/well with PBST-buffer) 25 μl anti-HLA-G samples (1:3 dilution in OSEP buffer) or reference antibody (G233, Thermo/Pierce #MA1-19449, 500 ng/ml) were added and incubated 1 h at RT. After washing (3×90 μl/well with PBST-buffer) 25 μl/well goat-anti-mouse H+L-POD (Biorad #170-6561, 1:2000 in OSEP) or donkey-anti-rabbit IgG POD (GE #NA9340V, 1:5000 in OSE) was added and incubated at RT for 1 h on shaker. For detection of rat IgGs a mixture of goat-anti-rat IgG1-POD (Bethyl #A110-106P), goat-anti-rat IgG2a-POD (Bethyl #A110-109P) and goat-anti-rat IgG2b-POD (Bethyl #A110-111P) 1:10000 in OSEP was added and incubated at RT for 1 h on shaker. After washing (6×90 μl/well with PBST-buffer) 25 μl/well TMB substrate (Roche, 11835033001) was added and incubated until OD 2-3. Measurement took place on a Tecan Safire 2 instrument at 370/492 nm.
The above table summarizes the binding of different rat anti-human HLA-G monoclonal antibodies, derived from wt protein IMS. Shown are the relative EC50 values [ng/ml] of the respective binding to rec. wt monomeric, dimeric and trimeric HLA-G proteins as assessed by ELISA. The ELISA was set up by coating the biotinylated wt HLA-G antigen to strepdavidin plates. After incubation and washing steps, the respective antibodies were bound in a concentration range from 10-0 μg in 1:2 dilution steps. Detection of bound antibodies was carried out by anti-Fc-antibody-POD conjugates. EC50 values were determined from the resulting binding curves at the antibody concentrations generating the half-maximal signal. In case of the non-biotinylated HLA-G dimer and trimer antigens, immobilization was carried out by random coating on assay plates.

Assay [2] has as its target T2, human HLA-G expressed on cells (JEG3 naturally; SKOV3 HLA-G+ and PA-TU-8902 HLA-G+ transfectants) (human, UniProt P17693 25-338).
T2 construct: whole, on cells; also called cell surface HLA-G; HLA-G on JEG3 cells
Put plainly: flow cytometry, JEG3 cells pre-incubated with antibody, competitor ILT2-Fc chimera. As for the experimental part:
For analysis, JEG3 cells (ATCC HTB36) were stained with ILT2-Fc fusion proteins (control=no inhibition) with or without pre-incubation with different anti-HLA-G antibodies. For the pre-incubation with anti-HLA-G antibodies 25 μl/well of the cell suspension was transferred into a polypropylene 96-Well V-bottom plate and prechilled in the at 4° C. for 10 min. Anti HLA-G antibodies or reference antibodies (G233, MEM-G/9 or 87G) were diluted in staining buffer to a 2-fold concentration of 20 μg/ml and 25 μl/well of the antibody solution was added to the prepared cells and incubated for 1 h at 5° C. Cells were washed twice with 200 μl/well staining buffer with centrifugation at 300 g for 3 min and finally resuspended in 25 μl/well staining buffer.
The detection of human ILT2-Fc Chimera protein (RD #2017-T2-050) to a) JEG3 cells pre-incubated anti HLA-G mAb or b) untreated JEG3 cells as reference was determined as follows: Briefly, the ILT2-Fc or control human IgG (Jackson-Immuno-Research #009-000-003) were diluted in staining buffer to a 2-fold concentration of 20 μg/ml (ILT2) and 25 μl/well of the ILT2-Fc protein solution was added to the prepared cells and incubated for 2 h at 5° C. Cells were again washed twice with 200 μl/well staining buffer the human ILT2-Fcprotein was detected with fluorescent labeled anti human IgG Fc-gamma specific antibody (F(ab′)₂ Fragment Goat Anti-Human IgG, Fcy fragment specific-FITC, Jackson-Immuno-Research #109-096-008) at a dilution of 10 μg/ml in staining buffer. Cell pellets were resuspended in 50 μl/well detection antibody. After a 1-hour incubation at 5° C. cells were washed twice with staining buffer, resuspended in 70 μl and measured at a FACS Canto II to determine ILT2 binding to JEG 3 cells.
(In general: A flow cytometer gives signals particle by particle.)

The target in assay [3] is T1, recombinant soluble human HLA-G β2M MHC …. Put plainly: competition ELISA, immobilised HLA-G monomer, antibody titrated, competitor c-myc ILT2. As for the experimental part:
Streptavidin coated plates (Nunc, MicroCoat #11974998001) were coated with 25 μl/well biotinylated human wt HLA-G at a concentration of 500 ng/ml and incubated at 4° C. overnight. After washing (3×90 μl/well with PB ST-buffer) 25 μl anti-HLA-G samples were added in decreasing concentrations starting at 8 μg/ml, then diluted in 1:3 steps and incubated 1 h at RT. After washing (3×90 μl/well with PBST-buffer) 25 μl/well c-myc-tagged recombinant ILT-2 receptor was added at a concentration of 150 ng/ml and incubated for 1 h at room temperature. After washing (3×90 μl/well with PBST-buffer) 25 μl/well goat-anti-c-myc-POD (Bethyl #A190-104P 1:7000 in OSE) was added and incubated at RT for 1 h on a shaker. After washing (6×90 μl/well with PBST-buffer), 25 μl/well TMB substrate (Roche, 11835033001) was added and incubated until OD 2-3. Measurement took place on a Tecan Safire 2 instrument at 370/492 nm
The ELISA was set up by coating the biotinylated antigen wt HLA-G to strepdavidin plates. After incubation and washing steps, the respective antibodies were bound in a concentration range from 8-0 μg in 1:3 dilution steps. C-myc tagged ILT-2 or -4 receptor was added to the HLA-G-antibody complexes. After incubation and washing steps, detection of bound receptor was carried out by anti-cmyc-antibody-POD conjugates. IC50 values were determined from the resulting inhibition curves at the antibody concentrations generating the half-maximal inhibition. In case of the non-biotinylated HLA-G dimer and trimer antigens, immobilization was carried out by random coating on assay plates.

The target in assay [4] is T3, recombinant soluble human HLA-G β2M MHC class I complex, trimer (human).
T3 construct: also called HLA-G Trimer; fraction A8
Put plainly: blocking ELISA, Fc tagged ILT4 coated, 100 nM antibody, soluble HLA-G trimer. The procedure:
(§1) The ELISA was set up by coating the Fc tagged ILT2 and ILT4 respectively to Maxisorp microtiter plates. After incubation and washing steps, the respective antibodies were added at a concentration of 100nM. Soluble His tagged monomeric, dimeric or trimeric HLA-G was added to the wells. After incubation and washing steps, detection of bound receptor was carried out by anti-His-antibody-POD conjugates.
(In general: An ELISA detects its analyte on a solid surface through an enzyme-linked reagent.)

Assay [5] concerns the target T4, recombinant soluble human HLA-G β2M MHC class I complex, dimer (human).
T4 construct: also called HLA-G Dimer; fraction A9
The assay is described as follows: blocking ELISA, Fc tagged ILT4 coated, 100 nM antibody, soluble HLA-G dimer. The procedure: as §1

Here are results for three molecules from patent US20200102389A1 (Hoffmann-La Roche, published 2020).

As a reminder, the EC50 is the midpoint of the concentration-response curve. As a reminder, the IC50 is the midpoint of a concentration-inhibition curve.

B1: HLA-G-0037 (antibody, V domains shown)
VH: QVQLKESGPGLVQPSQTLSLTCSVSGFSLTTYSVSWVRQPPGKGLEWIGAIWSGGSTDYNSALKSRLRISRDTSKSQVLLKMNSLQTEDRAMYFCVRMNNKFGYWYFDLWGPGTMVTVSS
VL: DTVLTQSPTLAVSPGEKITISCRASETVSTMLHWYQQKPGQQPKLLISLASHLESGVPARFTGSGSGTDFTLTIDPVEADDTATYYCQQTWNDPLTFGSGTKLEIK
Regarding B1, the EC50 in assay [1] was determined as 4.95 nM. The “Inhibition of ILT2 binding to Jeg3 cells” value in assay [2] worked out at 96.5%. Also, in assay [3], the IC50 is 13 nM. Further, the “% inh. ILT4” value stood at 67% in assay [4] and 61% in assay [5].

B2: HLA-G-0033 (antibody, V domains shown)
VH: EVQLVETGGGLVQSGRSLKLSCVASGFTFNDYWMTWTRQAPGKGLEWVASITNSGGRTYYLDSVRGRFTISRDDAQNTLYLQMNSLRSEDTATYYCTKERIYLTAYWFFDFWGPGTMVTVSS
VL: DTILTQSPALAVSPGERVTISCRASESVSTLIHWYQQKPGQRPKLLIYLASHLESGVPARFSGSGSGTDFTLTIDPVEADDTATYYCQQSWNEPRTFGGGTKLELK
Turning to B2, the EC50 in assay [1] turned out to be 4.94 nM. For the same molecule, the “Inhibition of ILT2 binding to Jeg3 cells” value in assay [2] is -9.3%. Also, the IC50 in assay [3] is 8 nM. Further, the figures for the “% inh. ILT4” value in assay [4] and in assay [5] were 71% and 70%, respectively.

B3: HLA-G-0032 (antibody, V domains shown)
VH: QVQLQQSGAELVKPGSSVKISCKASGYSFPSYDMHWIKQQPGNGLEWIGWIYPGNGNTKYNQKFNGKASLTADKSSSTAYMQLSSLTSEDSAVYFCAKPTVATRYNWFAYWGQGTLVTVSS
VL: QIVLTQSPALMSASPGEKVTMTCSASSSVNYMHWYQQKPRSSPKPWIYLTSNLASGVPARFSGSGSGTSYSLTISTMEAEDAATYYCQQWSSNLPITFGSGTKLEIK
Take B3: in assay [1], the 50% effective concentration (EC50) is 3.59 nM. Also, in assay [2], the “Inhibition of ILT2 binding to Jeg3 cells” value turned out to be 98.1%. The IC50 in assay [3] was found to be 8.4 nM. Moreover, the “% inh. ILT4” value in assay [4] was determined as 68%; in assay [5], 62%.
